Test results reported in US20020103133A1.
Non-standard residues stand in square brackets, D forms with d. Dox = doxorubicin conjugated to the C-terminal Leu; hPhe = N[C@@H](CCc1ccccc1)C(=O)O

Target: MMPs of HT1080 cells
Experiment: cell-based or functional assay

Ac-PLG[hPhe]K(Me2)L-Dox [acetyl-P-L-G-Hof-(N,N-dimethyl-K)-L-Dox]
Fraction of L-Dox, 0 hours, minus MMP inhibitor: 0 | Fraction of L-Dox, 0 hours, plus MMP inhibitor: 0 | Fraction of L-Dox, 3 hours, minus MMP inhibitor: 0.1 | Fraction of L-Dox, 3 hours, plus MMP inhibitor: 0.004 | Fraction of L-Dox, 5.5 hours, minus MMP inhibitor: 0.2 | Fraction of L-Dox, 5.5 hours, plus MMP inhibitor: 0.01 | Fraction of L-Dox, 8 hours, minus MMP inhibitor: 0.46 | Fraction of L-Dox, 8 hours, plus MMP inhibitor: 0.02
